In the supplement of paper PMC10567573:
± gives the standard deviation.

Test: protein stability index of a GFP-peptide fusion (GPS, HEK-293T) (PSI 1-6); higher = more stable
[1] = treatment: DMSO, c terminus: a fixed tail appended
[2] = treatment: MLN4924 1 uM, 8 h, c terminus: a fixed tail appended
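Also: 24-mer peptide tiles fused after GFP, lentivirally expressed, FACS-sorted into six equal bins by GFP/DsRed ratio, decoded by Illumina sequencing, PSI is the read-weighted mean bin number.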

Sequence | protein stability index [1] | protein stability index [2] | protein stability index (treatment: DMSO, c terminus: native) | protein stability index (treatment: MLN4924 1 uM, 8 h, c terminus: native)
PVVKALFGASAAGGLSPVTNLTVT [CDC25A] | 2.61 ± 0.24 | 2.65 ± 0.2 | – | –
LEVPKPGQPSEPEHGPSPGQDTFC [CHIT1] | 5.22 ± 0.17 | 5.23 ± 0.19 | – | –
FGTIISGIQLLIVEYKDIASIHWD [SLC35F2] | 3.15 ± 0.29 | 3 ± 0.34 | – | –
RRRWCPAGIMLLALVCLLSCLLPS [SPACA3] | 2.85 ± 0.55 | 2.77 ± 0.3 | – | –
EELANLRASQREYEELRNSERAEV [RSPH3] | 5.21 ± 0.4 | 5.18 ± 0.31 | – | –
PSKTYPAFLEPDETFIVPDSFLVA [SPSB1] | 2.39 ± 0.33 | 2.45 ± 0.15 | – | –
SDLPTPQAIEPQAIVQQVPAPSRM [SNX8] | 5.21 ± 0.11 | 5.13 ± 0.19 | – | –
DYHLLHPVENIPEIILYWKHSTIF [SLC25A25] | 2.71 ± 0.46 | 2.76 ± 0.63 | – | –
AVKLYNSGDFRSSTEDMERALSEY [P3H4] | 4.57 ± 0.4 | 4.14 ± 0.26 | – | –
TKLQAQHVSYRELGACVRTAVAQG [SLC25A39] | 3.05 ± 0.42 | 3.29 ± 0.32 | – | –
AKADTTSTVTPVPGQEKGSALEGR [EHMT1] | 5.3 ± 0.24 | 5.38 ± 0.12 | – | –
EKSQLIMQAEAEAASVRMRGEAEA [FLOT1] | 5.04 ± 0.12 | 4.7 ± 0.26 | – | –
APMDAPRYQHGIAVIGNFLYVVGG [KLHL13] | 2.18 ± 0.36 | 2.25 ± 0.25 | – | –
PLRAAHRRFNFDTDRPLLSTLEES [SMG5] | 3.94 ± 0.14 | 3.94 ± 0.18 | – | –
GGSAVCASRVKLQHLPAQEQWDRL [PLEKHN1] | 3.08 ± 0.43 | 3.06 ± 0.29 | – | –
FEDLNKRKDTKEIYTHFTCATDTK [GNAI1] | 4.57 ± 0.16 | 4.41 ± 0.42 | – | –
IIPQVPLFNILAKFNGITEKEYKT [USP39] | 2.41 ± 0.28 | 2.49 ± 0.28 | – | –
ITDSYPVVKRREGPAGHSKGELAP [POLD4] | 3.42 ± 0.47 | 4.21 ± 0.45 | – | –
EGYTSFWNDCISSGLRGGILIELA [GOLPH3L] | 3.14 ± 0.74 | 2.49 ± 0.52 | – | –
ELQGLPELHEECEGNHPSARKLTA [NET1] | 4.87 ± 0.21 | 4.56 ± 0.41 | – | –
LCRAQRERLASANLRVLVDCILRD [TEKT4] | 2.08 ± 0.58 | 2.41 ± 0.21 | – | –
SSHMNIDITDDCICDLARSIDFNK [PPEF2] | 3.67 ± 0.35 | 3.89 ± 0.19 | – | –

Sequence | protein stability index [1] | protein stability index [2] | protein stability index (treatment: DMSO, c terminus: native) | protein stability index (treatment: MLN4924 1 uM, 8 h, c terminus: native)
SHTLEERVVHWYFKLLDKNSSGDI [SMOC2] | 2.44 ± 0.36 | 2.03 ± 0.21 | – | –
DFVNLMAYDFHGSWEKVTGHNSPL [CHIT1] | 1.9 ± 0.23 | 2.06 ± 0.19 | – | –
KVQDALQNQSDSLLALAGAVQRLE [SCARA5] | 3.16 ± 0.24 | 3.29 ± 0.33 | – | –
NLNREEKIIREIDFYREDEDEEEE [TRIM55] | 5.37 ± 0.15 | 5.3 ± 0.32 | – | –
LGDSGLGPWQLNVFVCRVSAVLFY [P2RY14] | 3.32 ± 0.17 | 2.84 ± 0.42 | – | –
AAETAAQGPTPRYFTWDEVAQRSG [FADS1] | 4.23 ± 0.23 | 4.11 ± 0.27 | – | –
QLRFQHSQDVSDCYLELFPAHLYF [PLEKHN1] | 2.32 ± 0.54 | 2.27 ± 0.28 | – | –
SGFLKEMACPYSVLISGDIKDRLK [FAM98B] | 2.38 ± 0.49 | 2.52 ± 0.18 | – | –
KWLLWTEHQYRLPPMGKAFQELAG [SPDEF] | 2.44 ± 0.55 | 2.16 ± 0.48 | – | –
AQQFALMAPLLFNGCRSGEIFAID [DCAF4] | 2.6 ± 0.72 | 2.64 ± 0.34 | – | –
MLDSALRFQAMEETHLRHMKALLG [FCHO1] | 2.23 ± 0.37 | 2.33 ± 0.25 | – | –
GDDGIVVVWNAQTGEKLLELNGHT [WDR41] | 3.39 ± 0.11 | 3.3 ± 0.35 | – | –
AGTGASRSSHSSDSGGSDVDLDPT [ELF3] | 5.59 ± 0.23 | 5.51 ± 0.22 | – | –
FGAAYVLEQASSHIGNSTQATVRD [ATL3] | 3.06 ± 0.28 | 3.72 ± 0.33 | – | –
RLVDRDSVWGYDLGLRSLIPAVLT [MYORG] | 2.25 ± 0.54 | 2.28 ± 0.12 | – | –
EPITGWRKTVCHNGVLGLSRLLFF [LPCAT4] | 2.57 ± 0.71 | 2.2 ± 0.37 | – | –
IFSVLNSDDAAAPALETQPQGDEE [SMOC2] | 5.22 ± 0.23 | 5.29 ± 0.44 | – | –
LEGALHQAKEELARMLREYQELMS [KRT71] | 2.98 ± 0.3 | 3.48 ± 0.46 | – | –
SRRVLLTNVVTGHRQSFGTNSDVL [DCAF4] | 2.87 ± 0.28 | 3.04 ± 0.26 | – | –
PDLNILEDSAESRPWRAGVLAEGD [PSD2] | 4.87 ± 0.13 | 4.99 ± 0.14 | – | –
DLAKTGCVDLTITNLLEGAVAFMP [AUP1] | 2.21 ± 0.11 | 2.05 ± 0.32 | – | –
PHYELCTLRGTGATADFADVADDF [NETO1] | 4.69 ± 0.1 | 4.59 ± 0.25 | – | –

Sequence | protein stability index [1] | protein stability index [2] | protein stability index (treatment: DMSO, c terminus: native) | protein stability index (treatment: MLN4924 1 uM, 8 h, c terminus: native)
SPAQQVPKNPALEAFLAQFSQLED [TOR1AIP2] | 4.26 ± 0.45 | 4.38 ± 0.31 | – | –
YNRGEHPIFVNSPTLDAPGGRALV [SMAD6] | 3.13 ± 0.35 | 3.25 ± 0.34 | – | –
SEFHPHHCNLFVYSSSKGSLRLCD [PPP2R2C] | 2.23 ± 0.16 | 2.27 ± 0.26 | – | –
PKTVPSHVFSELWDLSEAWMQANY [ELOA2] | 2.6 ± 0.26 | 2.56 ± 0.41 | – | –
HCTVKLRQTTGLMEYCLEVIKEND [TRIM9] | 3.07 ± 0.29 | 3.32 ± 0.37 | – | –
ACAQLATGAACRLVEAVLSGEVLN [HDAC6] | 2.44 ± 0.53 | 2.65 ± 0.4 | – | –
IYEFWENSSVWNSHLQTNYSKTFQ [NECAB1] | 2.28 ± 0.31 | 2.16 ± 0.26 | – | –
MPPKFKRHLNDDDVTGSVKSERRN [VAMP4] | 4.79 ± 0.27 | 4.84 ± 0.18 | – | –
AIDRNYVPGKSLAVSCPGWSAVA [SNX12] | – | – | 2.73 ± 0.33 | 1.97 ± 0.31
FLQEEAIDRNYVPGKSLAVSCPGW [SNX12] | 2.73 ± 0.3 | 3.2 ± 0.2 | – | –
FSPTPPQQFQPAGTDQVCVLEWGA [FCHSD1] | 2.49 ± 0.27 | 2.86 ± 0.35 | – | –
RAPGAGLGQDRQVPLWGQLLLFLV [EMD] | 2.49 ± 0.17 | 2.09 ± 0.37 | – | –
GAHEQVDFKDFYPAIADLFAESLQ [P3H4] | 2.84 ± 0.51 | 3.08 ± 0.53 | – | –
LLIYTVKIRRFNKAKPEPDILEEE [TMEM192] | 2.31 ± 0.32 | 2.29 ± 0.31 | – | –
SITSKPATLTTTSATSKLIHPDED [ZNF207] | 5.31 ± 0.26 | 5.44 ± 0.28 | – | –
VAMLGVFLVSAVAHEYIFCFVLGF [SOAT2] | 3.21 ± 0.36 | 3.14 ± 0.5 | – | –
DLYKKVKKNSSPPLSLYGQLLWRE [CRY1] | 2.64 ± 0.39 | 2.67 ± 0.67 | – | –
FGLTYRDAENQKNWLDPAKEIKKQ [EPB41L3] | 3.68 ± 0.082 | 4.15 ± 0.089 | – | –
RTLSAFLCLGGLACLIVMFLPEKK [SLC22A15] | 3.25 ± 0.42 | 2.64 ± 0.36 | – | –
VVGAKKIYAHRVILSACSPYFRAM [KLHL20] | 2.78 ± 0.26 | 2.41 ± 0.84 | – | –
IEIATYRKLLEGEESRISVPVHSF [PRPH] | 2.47 ± 0.26 | 2.47 ± 0.21 | – | –
